Assay [1] addresses human αVβ3 integrin ectodomain (purchased, lyophilized) (human, UniProt P06756 31-992; P05106 27-718). Description: SEC. (In general: SEC sorts molecules by how far they enter the pores of the column.)
For assay [2], the target named is human αVβ3 integrin ectodomain (purchased, lyophilized) (human, UniProt P06756;P05106). The assay can be described thus: SPR.

A word on the Kd: it is the concentration at which binding is half-saturated. Read a low Kd as a tighter complex. By koff is commonly meant a measure of how fast the partners let go of each other. A lower koff goes with a long-lived complex. Broadly, the kon is the second-order rate constant of association. The low end stands for slower complex formation, the high end for faster complex formation.

Where no end group is shown, it is not given here. The star is where a group is joined. FITC = O=C1OC2(c3ccc(O)cc3Oc3cc(O)ccc32)c2ccc(NC(=S)*)cc21

Chain of human αVβ3 integrin ectodomain (purchased, lyophilized) (human, UniProt P06756;P05106) (P06756 31-992, chain 1 of 2): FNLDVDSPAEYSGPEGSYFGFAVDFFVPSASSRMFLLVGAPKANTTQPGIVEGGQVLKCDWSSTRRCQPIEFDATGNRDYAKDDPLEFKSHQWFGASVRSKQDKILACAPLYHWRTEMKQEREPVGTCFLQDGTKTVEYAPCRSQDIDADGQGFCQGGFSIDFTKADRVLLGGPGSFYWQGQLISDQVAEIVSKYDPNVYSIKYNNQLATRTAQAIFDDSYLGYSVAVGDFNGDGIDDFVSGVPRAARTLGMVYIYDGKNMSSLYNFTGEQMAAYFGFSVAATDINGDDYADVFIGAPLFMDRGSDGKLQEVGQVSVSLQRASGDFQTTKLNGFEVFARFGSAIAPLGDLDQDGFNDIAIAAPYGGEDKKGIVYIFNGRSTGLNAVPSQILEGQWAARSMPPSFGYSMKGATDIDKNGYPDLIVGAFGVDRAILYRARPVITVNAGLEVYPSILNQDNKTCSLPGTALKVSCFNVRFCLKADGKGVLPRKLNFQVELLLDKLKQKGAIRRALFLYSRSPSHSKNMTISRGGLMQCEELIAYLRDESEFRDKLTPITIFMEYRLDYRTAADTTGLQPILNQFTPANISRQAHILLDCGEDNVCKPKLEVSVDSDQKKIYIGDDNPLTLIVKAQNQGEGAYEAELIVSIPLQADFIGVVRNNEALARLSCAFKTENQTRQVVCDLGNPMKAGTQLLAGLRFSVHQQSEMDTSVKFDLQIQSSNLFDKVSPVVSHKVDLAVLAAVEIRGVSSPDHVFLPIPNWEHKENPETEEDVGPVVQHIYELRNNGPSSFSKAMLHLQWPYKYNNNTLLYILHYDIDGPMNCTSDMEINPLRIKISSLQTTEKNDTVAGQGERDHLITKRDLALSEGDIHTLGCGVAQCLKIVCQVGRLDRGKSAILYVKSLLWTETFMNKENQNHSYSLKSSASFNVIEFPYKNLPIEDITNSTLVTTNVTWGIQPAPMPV
Chain of human αVβ3 integrin ectodomain (purchased, lyophilized) (human, UniProt P06756;P05106) (P05106 27-718, chain 2 of 2): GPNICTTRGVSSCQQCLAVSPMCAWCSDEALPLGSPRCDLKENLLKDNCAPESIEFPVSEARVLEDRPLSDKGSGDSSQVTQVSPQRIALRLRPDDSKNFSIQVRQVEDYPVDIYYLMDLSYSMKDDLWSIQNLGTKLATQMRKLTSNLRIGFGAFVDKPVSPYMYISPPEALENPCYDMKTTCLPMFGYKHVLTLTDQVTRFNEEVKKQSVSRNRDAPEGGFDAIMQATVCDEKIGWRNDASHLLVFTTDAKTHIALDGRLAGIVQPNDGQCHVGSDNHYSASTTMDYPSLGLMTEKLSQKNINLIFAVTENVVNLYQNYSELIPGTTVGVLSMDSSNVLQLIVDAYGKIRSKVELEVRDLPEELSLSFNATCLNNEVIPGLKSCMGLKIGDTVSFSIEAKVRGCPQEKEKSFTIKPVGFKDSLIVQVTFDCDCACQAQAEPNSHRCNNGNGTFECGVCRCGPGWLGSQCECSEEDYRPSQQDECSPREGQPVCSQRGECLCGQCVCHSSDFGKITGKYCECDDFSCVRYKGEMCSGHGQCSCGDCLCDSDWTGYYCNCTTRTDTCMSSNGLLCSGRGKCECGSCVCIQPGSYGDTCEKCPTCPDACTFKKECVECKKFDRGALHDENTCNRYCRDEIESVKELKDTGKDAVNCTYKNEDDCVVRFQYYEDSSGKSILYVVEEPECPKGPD
Chain of human αVβ3 integrin ectodomain (purchased, lyophilized) (human, UniProt P06756 31-992; P05106 27-718) (P06756 31-992, chain 1 of 2): as the sequence (P06756 31-992, chain 1 of 2) above
Chain of human αVβ3 integrin ectodomain (purchased, lyophilized) (human, UniProt P06756 31-992; P05106 27-718) (P05106 27-718, chain 2 of 2): as the sequence (P05106 27-718, chain 2 of 2) above

As for {FITC}-GRGDSPK [FITC-GRGDSPK peptide], the binding result in assay [1] is “binds”.

B1: Fab LM609 (recombinant antigen-binding fragment of the mouse monoclonal antibody LM609) (Fab, V domains shown)
VH: EVQLEESGGGLVKPGGSLKLSCAASGFAFSSYDMSWVRQIPEKRLEWVAKVSSGGGSTYYLDTVQGRFTISRDNAKNTLYLQMSSLNSEDTAMYYCARHNYGSFAYWGQGTLVTVSA
VL: ELVMTQTPATLSVTPGDSVSLSCRASQSISNHLHWYQQKSHESPRLLIKYASQSISGIPSRFSGSGSGTDFTLSINSVETEDFGMYFCQQSNSWPHTFGGGTKLEIK
In assay [2], B1 returned a Kd of 23 nM, a koff of 0.0034 s⁻¹ and a kon of 150000 M⁻¹ s⁻¹.

The values are drawn from PMC5689087 (Structure (London, England : 1993), 2017).
